# In the supplement of paper PMC9170038:
# System: MS2 coat protein
# Assay: apparent KD of MS2 coat protein; designed switch direction (-1 OFF switch, 1 ON switch): -1; higher = weaker reporter binding
# Summary of the method: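 SNAP-549-labelled MS2 coat protein was titrated, doubling from 0.7 or 1.5 nM to 3 µM, over designed RNA switches transcribed on Illumina chips by stalled E. coli RNA polymerase. Runs were done without input, with 200 uM small-molecule ligand, or with an oligonucleotide input. Apparent KD is the per-design median over clusters of curve-fitted normalised fluorescence.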
# [1] = Eterna round: R95, input ligand: FMN 200 uM
# [2] = Eterna round: R95, input ligand: microRNA oligo, concentration not stated
# [3] = Eterna round: R95, input ligand: none
# [4] = input ligand: microRNA oligo, concentration not stated
Sequence,apparent KD of MS2 coat protein [1] [nM],apparent KD of MS2 coat protein [2] [nM],apparent KD of MS2 coat protein [3] [nM],apparent KD of MS2 coat protein (input ligand: FMN 200 uM) [nM],apparent KD of MS2 coat protein (input ligand: none) [nM],apparent KD of MS2 coat protein [4] [nM]
CAAAAGGUAGGAUAUUAUGCCUGUAACAUGAGGAUCACCCAUGUGGUCCGAGACGGAGUUUAAGAAGGACCGAAAA [Masomariat] (puzzle: Exclusion 5),895,169,190,,,
"GGGCGCUUAGGAUAUACAUGAGGAUCACCCAUGUGGCUCUCCACGUUGCAUAACAUUCGUAGAAGGAAGCGCAU [Eternabot (L1) Solution 69] (Eterna round: R97, puzzle: Exclusion 3)",,,,252,35.8,
"GCUGGUCGAGGAUAUAUAUGACGUGCUUCGGCACGAAGGUCACAUGAGGAUCACCCAUGUAGAAGGUGACCAGC [E2/9-B1] (Eterna round: R97, puzzle: Exclusion 2)",,,,110,42,
"UAUUAGCAAGUAAGAUCCCACAUGAGGAUCACCCAUGUGCUCGUCAUAUCAGGUACGGAGCGGAAACUCCCGAUAUG [Sensor-V1 #89] (Eterna round: R97, puzzle: Sensor, turn-off variant 1)",,,,106,95.9,
"CUUCAUCCACCAGAGCUCACACUUAUACCUGCUCUGGUGACAUGAGGAUCACCCAUGUUUUUUGCCCGUCUUAUCUU [Sensor v3, turn-off variant 2 (MOD of Leso)] (puzzle: Sensor v3, turn-off variant 2)",149,19.8,207,,,
"GCCACCACAUGAGGAUCAAACAUGAGGAUCACCCAUGUAUAACAAGCUUUUUGCUCGUCUUAUAAAUAUGUGGUGGC [Electric Eye 4 - Jieux - Sensor, turn-off variant 1] (Eterna round: R97, puzzle: Sensor, turn-off variant 1)",,,,14,15.3,
"UACAUGAGGAUCACCCAUGUUUUGUCGUGUAUGGUAUUUAUCUAGGAUAUCAUUGUAUUUAUUUAUGAGAAGGAGAAUAUUAAU [JMF's solution 96] (Eterna round: R96, puzzle: Exclusion NG 3)",,,,34.4,32.6,24
UUCAUGUGAGGAUAUGUGAUCUGCUUUCUGUGUAGAUGAUCACAGAAGGCACAUGAGGAUCACCCAUGUAGAUC [Ex4 - 3 - 29] (puzzle: Exclusion 4),,77.3,,,,
"UAUUAGCAAGCGAGAUCCCACAUGAGGAUCACCCAUGUGCUCGUGCAUCCAGAAUUACUGGGUGCAGCUCGUCUUAU [Winner reversed engineered 12] (Eterna round: R97, puzzle: Sensor, turn-off variant 1)",,,,14.9,14.7,
"GAUUAUGCGAGCUUUAGGGACAUGAGGAUCACCCAUGUUCGUCUUAUUAAUCUGGGUACACUGGCAUACCUAAAUCU [JMF 7] (puzzle: Sensor v3, turn-off variant 1)",26.7,37.7,28.1,,,
"AGUAGAUCUACGCUUGCGUGGAUCUGCUAGGCAGGUGUUACAUGAGGAUCACCCAUGUCCUCAUUUGUUCGUCUUAU [JL turnoff v2 99.17] (puzzle: Sensor v3, turn-off variant 2)",378,153,604,,,
UUUUUGUGAGGAUAUCAGUAGUAAAAUAAAUAAAUUACUACUGAGAAGGCACAUGAGGAUCACCCAUGUUCCUU [Mat - Exclusion 4 - Mod of Salish - D66] (puzzle: Exclusion 4),,13.7,,,,
"AGUAGUUGUUUCCGUUCUUACAUGAGGAUCACCCAUGUUUCUUGUCGUGCUCGCGUUGCUCGUCAGACUACCAGAUG [salish99_TOv1_r3_060] (puzzle: Sensor v3, turn-off variant 1)",51.1,57.8,75.8,,,
"CAGCUGAAUGUGAGGAUAUCUAGAGCCUCGGCUCUAGAGAAGGCACAUGAGGAUCACCCAUGUCUCAACAGCUG [BmEx4/2-A2] (Eterna round: R97, puzzle: Brourd's mod of Exclusion 4)",,,,249,35.9,
CCGGAAAUAGAGGAUAUAGGAGUCGAUAGACUCCUAGAAGGCUAUACAUGAGGAUCACCCAUGUGUCCUACCGG [Fiskers Ex 6 - 65] (puzzle: Exclusion 6),,16.6,,,,
"CCGAAAAGGAAGGAUAUGCUAGACGAAAGUCUAGCAGAAGGUCCUACAUGAGGAUCACCCAUGUGUCCUAUCGG [Mat - Exclusion 6 - Eli Mod - D39] (Eterna round: R97, puzzle: Exclusion 6)",,,,49.9,43.4,
"GAAAACGUAGGAUAUUAAUACUUAGACAUGAGGAUCACCCAUGUUUGGUGGGUUUAAGAAUGAGAAGGGCGAUGAA [EX5 #7] (Eterna round: R97, puzzle: Exclusion 5)",,,,222,189,

Sequence,apparent KD of MS2 coat protein [1] [nM],apparent KD of MS2 coat protein [2] [nM],apparent KD of MS2 coat protein [3] [nM],apparent KD of MS2 coat protein (input ligand: FMN 200 uM) [nM],apparent KD of MS2 coat protein (input ligand: none) [nM],apparent KD of MS2 coat protein [4] [nM]
AAAAGGUCAGGAUAUCGACGCGGUUGGGAGGCAGGUCCGCGCGAGAAGGGACAUGAGGAUCACCCAUGUUAAAA [Excls4-IV] (puzzle: Exclusion 4),33.5,22.8,26.4,,,
"CUUAAUUGUGACAUGGGUGACAUGAGGAUCACCCAUGUCACAAGCUUUUUGCUCGUCUUAUAAUUAACCCAUGUCAC [Stov1/13-A3] (Eterna round: R97, puzzle: Sensor, turn-off variant 1)",,,,30,33.4,
"GAUUAUGCGAGCUUUAGGGACAUGAGGAUCACCCAUGUUCGUCUUAUUGAUCUAGGUACACUGACAUACCUAAAUCU [JMF 66] (puzzle: Sensor v3, turn-off variant 1)",23.7,39.9,24.5,,,
CUCAAACAUGAGGAUCACCCAUGUGAGGAUAUGAUGCGAUCGUCGAAAGACGAUAGCAUCAGAAGGUACAAAUG [Fiskers Ex 1 - 23] (puzzle: Exclusion 1),37.7,37.9,54.2,,,
"UACAUGAGGAUCACCCAUGUUUUGUCGUGUAUGGUAUUUAUCUAGGAUAUCAAUUUAGUUACUUAUGAGAAGGAGAAUAUUAAU [JMF's solution 77] (Eterna round: R96, puzzle: Exclusion NG 3)",,,,33.8,38.7,22.3
"UAUCGGGACUGAGGAUAUUCGUUCGAACACGAAGAAGAAGGUAGUGUCAGGGACAUGAGGAUCACCCAUGUGAACUCAGUCCUA [JL ViennaUCT Erinle mod] (Eterna round: R96, puzzle: Exclusion NG 1)",,,,38.3,38.3,33.7
GUGGUGACAGGAUAUACAUGAGGAUCACCCAUGUGAGGAGGACGAGACAGGUGAAGGAGUAGAAGGGUCAGAGG [JR_Exclu3_Sub027] (puzzle: Exclusion 3),66.7,74.5,60.3,,,
UUUCUCGUUGUGAGGAUAUCGUUUUUGUUUUGGAUCGAGAAGGCACAUGAGGAUCACCCAUGUUUGUUGUGGUU [JR_BMOE4_Sub088] (puzzle: Brourd's mod of Exclusion 4),,93.3,,,,
UUUUAACAUGAGGAUCACCCAUGUGAGGAUAUCGAAAUUUAUAUUAAUAUUAUUAAUUCGAGAAGGCACAUUUU [JMF 37] (puzzle: Exclusion 1),,126,,,,
"CGGUGUAACGUAGGAUAUCAGCGCAACUGACGAUGAGAAGGACGACAUGAGGAUCACCCAUGUGAUUUCUCAAUAUUAUACAUC [Prohibition 87 - Jieux - Exclusion NG 1] (Eterna round: R96, puzzle: Exclusion NG 1)",,,,511,74.5,58.9
"ACAUGAGGAUCACCCAUGUGAAAGAAAUGGCUGACUUUGAGCUAGGAUAUUUGUGCAUAUCAAACAAAGAAGGAGCAUUACUGG [Deportation 99 - Jieux - Exclusion NG 3] (Eterna round: R96, puzzle: Exclusion NG 3)",,,,20.4,20.6,16.9
GAAAAGGUAGGAUAUACGAAAAAAAAGGGUAGAUAAAAAACACAUGAGGAUCACCCAUGUAGAAGGACCAAAAG [salish99_ex2_r3_078] (puzzle: Exclusion 2),101,41.8,29.3,,,
"CCGGUUGGCGCAGGAUAUACAUGAGGAUCACCCAUGUUCGUGAGGAUCACCCAUGAGUUUUUGUUGUAGAAGGGUGGCCCGGCC (Eterna round: R96, puzzle: Exclusion NG 2)",,,,24.4,28.5,16
"AUGCUCCGUGUAGGAUAUCGCCGUACCACUCGGCGAGAAGGACAUGAGGAUCACCCAUGUAUGUUAUUAUCACGUGUGGCGCGC [Design 50] (Eterna round: R96, puzzle: Exclusion NG 1)",,,,46,20.5,12.9
"UAACAAGCUUUAAGAUCCUACAUGAGGAUCACCCAUGUGCUCGUCUUGUAACGUACUGUGACGAAAGUCACGGUACG [JL TOV1 3.16] (Eterna round: R97, puzzle: Sensor, turn-off variant 1)",,,,236,231,
"ACAUGAGGAUCACCCAUGUGCACGUAAUGGCUCAUGUAGAGUGAGGAUAUGCGUGGCGAACGAGCGCAGAAGGCACAAGACUGG [Deportation 17 - Jieux - Exclusion NG 3] (Eterna round: R96, puzzle: Exclusion NG 3)",,,,106,72.6,56.4
